Molecular target: T1, basiliximab fab
T1 construct: The assay used a Fab of basiliximab; Chimeric antibody: human IgG1 constant, mouse variable domains
Test: BLI; CD25-Fc on anti-hFc biosensor, basiliximab Fab in solution; global 1:1 fit;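 also: biolayer interferometry signals normalized against a reference probe and smoothed with a Savitzky-Golay filter before the global fit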
Method: Briefly, binding affinity (KD) of CD25 mutants from Table 1 was measured using biolayer interferometry. […] Experimental data was normalized to a reference probe and high-frequency noise was removed by Savitzky-Golay filtering. On and off-rate constants were determined using a globally fitted 1:1 binding model.

T1 sequence (VH, as listed by the source limits assumed, chain 1 of 2): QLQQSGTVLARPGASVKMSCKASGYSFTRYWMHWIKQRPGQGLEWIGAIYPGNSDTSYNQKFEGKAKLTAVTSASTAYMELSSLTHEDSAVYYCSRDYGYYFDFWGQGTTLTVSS
T1 sequence (VL, as listed by the source limits assumed, chain 2 of 2): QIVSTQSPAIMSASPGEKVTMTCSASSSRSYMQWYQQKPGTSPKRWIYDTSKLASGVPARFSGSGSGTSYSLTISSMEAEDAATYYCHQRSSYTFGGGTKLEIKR

Row | Binder | Kd | koff | kon
1 | CD25 L2I mutant (CD25-Fc) (Fc fusion, not shown: Fc part of CD25-Fc) EICDDDPPEIPHATFKAMAYKEGTMLNCECKRGFRRIKSGSLYMLCTGNSSHSSWDNQCQCTSSATRNTTKQVTPQPEEQKERKTTEMQSPMQPVDQASLPGHCREPPPWENEATERIYHFVVGQMVYYQCVQGYRALHRGPAESVCKMTHGKTRWTQPQLICTGEMETSQFPGEEKPQASPEGRPESETSCLVTTTDFQIQTEMAATMETSIFTTEYQ | 3.46 nM | 0.000734 s⁻¹ | 212000 M⁻¹ s⁻¹
2 | CD25 T47N mutant (CD25-Fc) (Fc fusion, not shown: Fc part of CD25-Fc) ELCDDDPPEIPHATFKAMAYKEGTMLNCECKRGFRRIKSGSLYMLCNGNSSHSSWDNQCQCTSSATRNTTKQVTPQPEEQKERKTTEMQSPMQPVDQASLPGHCREPPPWENEATERIYHFVVGQMVYYQCVQGYRALHRGPAESVCKMTHGKTRWTQPQLICTGEMETSQFPGEEKPQASPEGRPESETSCLVTTTDFQIQTEMAATMETSIFTTEYQ | 12.8 nM | 0.00776 s⁻¹ | 608000 M⁻¹ s⁻¹
3 | CD25 S41D mutant (CD25-Fc) (Fc fusion, not shown: Fc part of CD25-Fc) ELCDDDPPEIPHATFKAMAYKEGTMLNCECKRGFRRIKSGDLYMLCTGNSSHSSWDNQCQCTSSATRNTTKQVTPQPEEQKERKTTEMQSPMQPVDQASLPGHCREPPPWENEATERIYHFVVGQMVYYQCVQGYRALHRGPAESVCKMTHGKTRWTQPQLICTGEMETSQFPGEEKPQASPEGRPESETSCLVTTTDFQIQTEMAATMETSIFTTEYQ | 6.49 nM | 0.00708 s⁻¹ | 1.09e+06 M⁻¹ s⁻¹
4 | CD25 L42Y mutant (CD25-Fc) (Fc fusion, not shown: Fc part of CD25-Fc) ELCDDDPPEIPHATFKAMAYKEGTMLNCECKRGFRRIKSGSYYMLCTGNSSHSSWDNQCQCTSSATRNTTKQVTPQPEEQKERKTTEMQSPMQPVDQASLPGHCREPPPWENEATERIYHFVVGQMVYYQCVQGYRALHRGPAESVCKMTHGKTRWTQPQLICTGEMETSQFPGEEKPQASPEGRPESETSCLVTTTDFQIQTEMAATMETSIFTTEYQ | 1.75 nM | 0.000325 s⁻¹ | 186000 M⁻¹ s⁻¹
5 | CD25 S41N mutant (CD25-Fc) (Fc fusion, not shown: Fc part of CD25-Fc) ELCDDDPPEIPHATFKAMAYKEGTMLNCECKRGFRRIKSGNLYMLCTGNSSHSSWDNQCQCTSSATRNTTKQVTPQPEEQKERKTTEMQSPMQPVDQASLPGHCREPPPWENEATERIYHFVVGQMVYYQCVQGYRALHRGPAESVCKMTHGKTRWTQPQLICTGEMETSQFPGEEKPQASPEGRPESETSCLVTTTDFQIQTEMAATMETSIFTTEYQ | 3.85 nM | 0.00707 s⁻¹ | 1.84e+06 M⁻¹ s⁻¹
6 | CD25 L2Y mutant (CD25-Fc) (Fc fusion, not shown: Fc part of CD25-Fc) EYCDDDPPEIPHATFKAMAYKEGTMLNCECKRGFRRIKSGSLYMLCTGNSSHSSWDNQCQCTSSATRNTTKQVTPQPEEQKERKTTEMQSPMQPVDQASLPGHCREPPPWENEATERIYHFVVGQMVYYQCVQGYRALHRGPAESVCKMTHGKTRWTQPQLICTGEMETSQFPGEEKPQASPEGRPESETSCLVTTTDFQIQTEMAATMETSIFTTEYQ | 1.51 nM | 0.00263 s⁻¹ | 1.75e+06 M⁻¹ s⁻¹
7 | CD25 S41Q mutant (CD25-Fc) (Fc fusion, not shown: Fc part of CD25-Fc) ELCDDDPPEIPHATFKAMAYKEGTMLNCECKRGFRRIKSGQLYMLCTGNSSHSSWDNQCQCTSSATRNTTKQVTPQPEEQKERKTTEMQSPMQPVDQASLPGHCREPPPWENEATERIYHFVVGQMVYYQCVQGYRALHRGPAESVCKMTHGKTRWTQPQLICTGEMETSQFPGEEKPQASPEGRPESETSCLVTTTDFQIQTEMAATMETSIFTTEYQ | 5.25 nM | 0.00512 s⁻¹ | 975000 M⁻¹ s⁻¹
8 | CD25 S41E mutant (CD25-Fc) (Fc fusion, not shown: Fc part of CD25-Fc) ELCDDDPPEIPHATFKAMAYKEGTMLNCECKRGFRRIKSGELYMLCTGNSSHSSWDNQCQCTSSATRNTTKQVTPQPEEQKERKTTEMQSPMQPVDQASLPGHCREPPPWENEATERIYHFVVGQMVYYQCVQGYRALHRGPAESVCKMTHGKTRWTQPQLICTGEMETSQFPGEEKPQASPEGRPESETSCLVTTTDFQIQTEMAATMETSIFTTEYQ | 6.08 nM | 0.00719 s⁻¹ | 1.18e+06 M⁻¹ s⁻¹

Continued by falling Kd, values first:

Row | Kd | koff | kon | Binder
9 | 23.3 nM | 0.0116 s⁻¹ | 499000 M⁻¹ s⁻¹ | CD25 L42I mutant (CD25-Fc) (Fc fusion, not shown: Fc part of CD25-Fc) ELCDDDPPEIPHATFKAMAYKEGTMLNCECKRGFRRIKSGSIYMLCTGNSSHSSWDNQCQCTSSATRNTTKQVTPQPEEQKERKTTEMQSPMQPVDQASLPGHCREPPPWENEATERIYHFVVGQMVYYQCVQGYRALHRGPAESVCKMTHGKTRWTQPQLICTGEMETSQFPGEEKPQASPEGRPESETSCLVTTTDFQIQTEMAATMETSIFTTEYQ
10 | 7.65 nM | 0.000772 s⁻¹ | 101000 M⁻¹ s⁻¹ | CD25 L42F mutant (CD25-Fc) (Fc fusion, not shown: Fc part of CD25-Fc) ELCDDDPPEIPHATFKAMAYKEGTMLNCECKRGFRRIKSGSFYMLCTGNSSHSSWDNQCQCTSSATRNTTKQVTPQPEEQKERKTTEMQSPMQPVDQASLPGHCREPPPWENEATERIYHFVVGQMVYYQCVQGYRALHRGPAESVCKMTHGKTRWTQPQLICTGEMETSQFPGEEKPQASPEGRPESETSCLVTTTDFQIQTEMAATMETSIFTTEYQ
11 | 4.49 nM | 0.00588 s⁻¹ | 1.31e+06 M⁻¹ s⁻¹ | CD25 T47S mutant (CD25-Fc) (Fc fusion, not shown: Fc part of CD25-Fc) ELCDDDPPEIPHATFKAMAYKEGTMLNCECKRGFRRIKSGSLYMLCSGNSSHSSWDNQCQCTSSATRNTTKQVTPQPEEQKERKTTEMQSPMQPVDQASLPGHCREPPPWENEATERIYHFVVGQMVYYQCVQGYRALHRGPAESVCKMTHGKTRWTQPQLICTGEMETSQFPGEEKPQASPEGRPESETSCLVTTTDFQIQTEMAATMETSIFTTEYQ
12 | 3.93 nM | 0.000748 s⁻¹ | 190000 M⁻¹ s⁻¹ | CD25 L42V mutant (CD25-Fc) (Fc fusion, not shown: Fc part of CD25-Fc) ELCDDDPPEIPHATFKAMAYKEGTMLNCECKRGFRRIKSGSVYMLCTGNSSHSSWDNQCQCTSSATRNTTKQVTPQPEEQKERKTTEMQSPMQPVDQASLPGHCREPPPWENEATERIYHFVVGQMVYYQCVQGYRALHRGPAESVCKMTHGKTRWTQPQLICTGEMETSQFPGEEKPQASPEGRPESETSCLVTTTDFQIQTEMAATMETSIFTTEYQ
13 | 3.66 nM | 0.00787 s⁻¹ | 2.15e+06 M⁻¹ s⁻¹ | CD25 T47D mutant (CD25-Fc) (Fc fusion, not shown: Fc part of CD25-Fc) ELCDDDPPEIPHATFKAMAYKEGTMLNCECKRGFRRIKSGSLYMLCDGNSSHSSWDNQCQCTSSATRNTTKQVTPQPEEQKERKTTEMQSPMQPVDQASLPGHCREPPPWENEATERIYHFVVGQMVYYQCVQGYRALHRGPAESVCKMTHGKTRWTQPQLICTGEMETSQFPGEEKPQASPEGRPESETSCLVTTTDFQIQTEMAATMETSIFTTEYQ
14 | 1.39 nM | 0.000399 s⁻¹ | 236000 M⁻¹ s⁻¹ | CD25 Y43R mutant (CD25-Fc) (Fc fusion, not shown: Fc part of CD25-Fc) ELCDDDPPEIPHATFKAMAYKEGTMLNCECKRGFRRIKSGSLRMLCTGNSSHSSWDNQCQCTSSATRNTTKQVTPQPEEQKERKTTEMQSPMQPVDQASLPGHCREPPPWENEATERIYHFVVGQMVYYQCVQGYRALHRGPAESVCKMTHGKTRWTQPQLICTGEMETSQFPGEEKPQASPEGRPESETSCLVTTTDFQIQTEMAATMETSIFTTEYQ
15 | 1.14 nM | 0.000152 s⁻¹ | 133000 M⁻¹ s⁻¹ | CD25 L42G mutant (CD25-Fc) (Fc fusion, not shown: Fc part of CD25-Fc) ELCDDDPPEIPHATFKAMAYKEGTMLNCECKRGFRRIKSGSGYMLCTGNSSHSSWDNQCQCTSSATRNTTKQVTPQPEEQKERKTTEMQSPMQPVDQASLPGHCREPPPWENEATERIYHFVVGQMVYYQCVQGYRALHRGPAESVCKMTHGKTRWTQPQLICTGEMETSQFPGEEKPQASPEGRPESETSCLVTTTDFQIQTEMAATMETSIFTTEYQ
16 | 1.07 nM | 0.00252 s⁻¹ | 2.36e+06 M⁻¹ s⁻¹ | CD25 L2F mutant (CD25-Fc) (Fc fusion, not shown: Fc part of CD25-Fc) EFCDDDPPEIPHATFKAMAYKEGTMLNCECKRGFRRIKSGSLYMLCTGNSSHSSWDNQCQCTSSATRNTTKQVTPQPEEQKERKTTEMQSPMQPVDQASLPGHCREPPPWENEATERIYHFVVGQMVYYQCVQGYRALHRGPAESVCKMTHGKTRWTQPQLICTGEMETSQFPGEEKPQASPEGRPESETSCLVTTTDFQIQTEMAATMETSIFTTEYQ
17 | 1.04 nM | 0.000201 s⁻¹ | 194000 M⁻¹ s⁻¹ | CD25 L42W mutant (CD25-Fc) (Fc fusion, not shown: Fc part of CD25-Fc) ELCDDDPPEIPHATFKAMAYKEGTMLNCECKRGFRRIKSGSWYMLCTGNSSHSSWDNQCQCTSSATRNTTKQVTPQPEEQKERKTTEMQSPMQPVDQASLPGHCREPPPWENEATERIYHFVVGQMVYYQCVQGYRALHRGPAESVCKMTHGKTRWTQPQLICTGEMETSQFPGEEKPQASPEGRPESETSCLVTTTDFQIQTEMAATMETSIFTTEYQ
18 | 0.242 nM | 2.49e-05 s⁻¹ | 103000 M⁻¹ s⁻¹ | CD25 L42A mutant (CD25-Fc) (Fc fusion, not shown: Fc part of CD25-Fc) ELCDDDPPEIPHATFKAMAYKEGTMLNCECKRGFRRIKSGSAYMLCTGNSSHSSWDNQCQCTSSATRNTTKQVTPQPEEQKERKTTEMQSPMQPVDQASLPGHCREPPPWENEATERIYHFVVGQMVYYQCVQGYRALHRGPAESVCKMTHGKTRWTQPQLICTGEMETSQFPGEEKPQASPEGRPESETSCLVTTTDFQIQTEMAATMETSIFTTEYQ

From US20230056336A1 (KYVERNA THERAPEUTICS, published 2023)
